Results taken from PMC2115937.

Target: epidermal growth factor receptor (EGF receptor kinase), rat liver (rat (endogenous in rat liver))
Assay: polyethylene glycol precipitation of receptor-bound radioligand

- percent of 125I-EGF in endosomes that is receptor bound (10 ug EGF injected): 77%
Substance: epidermal growth factor (EGF) (from UniProt P01132 977-1029) (ligand)
